molecular target: T1, Human PD-L1 antigen (human, UniProt Q9NZQ7 19-238); assay: BLI (Octet), His-tagged VHH on anti-penta-His tips, soluble human PD-L1
T1 construct: also called PD-L1 protein
T1 sequence (Q9NZQ7 19-238 limits assumed): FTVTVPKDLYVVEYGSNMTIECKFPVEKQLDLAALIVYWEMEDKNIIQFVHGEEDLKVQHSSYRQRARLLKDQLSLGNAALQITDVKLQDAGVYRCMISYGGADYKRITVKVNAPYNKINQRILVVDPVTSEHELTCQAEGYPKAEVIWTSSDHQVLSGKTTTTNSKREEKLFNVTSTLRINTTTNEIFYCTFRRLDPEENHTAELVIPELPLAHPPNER

Row | Kd | koff | kon | Binder
1 | 19 nM | 0.000522 s⁻¹ | 27500 M⁻¹ s⁻¹ | PL11 (VHH, not shown: C-terminal His-tag) VHH: QVQLVESGGGLVQAGGSLRLSCAASGRTFNTYDMGWFRRAPGKEREFVAGIDWYTTNTYYADSVKGRFTISRDNAKNTVYLQMRSLKPEDTAVYYCAAGIRSTATITGQADYWGQGAQVTVSS
2 | 0.0114 nM | 1.09e-06 s⁻¹ | 87000 M⁻¹ s⁻¹ | PL17 (VHH, not shown: C-terminal His-tag) VHH: QVQLVESGGGLVQAGGSLRLSCAASGRTFNTYDMGWFRRTPGKEREFVAGMDWNTINTYYADSVKGRFTISRDNAKNTVYLQMRSLKPEDTAVYYCAAGIRSTAIITGQADYWGQGTQVTVSS
3 | 0.0271 nM | 2.98e-06 s⁻¹ | 110000 M⁻¹ s⁻¹ | PL16 (VHH, not shown: C-terminal His-tag) VHH: QVQLVESGGGLVQAGGSLRLSCAFSGGTFLTYSLGWFRQGPGKEREFVASINWSGYMTSYVDSVKGRFTISRDNAKNTVYLQMNSLKPEDTALYYCAAARTAIAAKRSSEFDYWGQGAQVTVSS
4 | 0.0177 nM | 1.1e-06 s⁻¹ | 62100 M⁻¹ s⁻¹ | PL14 (VHH, not shown: C-terminal His-tag) VHH: EVQLVESGGGLVQAGGSLRLSCAASGSTSGIYDMGWYRQAPGKLREVVGIITSGGTTNYADFAKGRFTISRDNAKNMMYLQMNSLKPEDTAVYYCNIRTRLIIWGQGTQVTVSS
5 | 2.67 nM | 0.000114 s⁻¹ | 42700 M⁻¹ s⁻¹ | PL18 (VHH, not shown: C-terminal His-tag) VHH: EVQLVESGGGLVQAGGSLRLSCAASGRTFNIYSMAWFRQAPGKEREFVVRINWNRGTTYYADSVKGRFTISRDNAKNTVYLQMSNLKPEDTAVYYCAARGSPSTIGAFTSASHYDYWGQGTQVTVSS
6 | 630 nM | 0.021 s⁻¹ | 33300 M⁻¹ s⁻¹ | PL2 (VHH, not shown: C-terminal His-tag) VHH: QVQLVESGGGLVQAGGSLRLSCAVSGLTLSRYTMAWFRQAPGKEREFVAAIIRNSVSTFHEESVKGRFTISRDNVKNMMYLQMNTLKPEDTAVYYCATNVGPTGGFSLQSVQRYDAWGQGTQVTVSS

molecular target: T2, CD47 natively expressed on tumor cell surface (Jurkat, HL60 cells) (human, UniProt Q08722 19-323); assay: flow cytometry on HL60 cells (express CD47 but not PD-L1)
T2 construct: whole, on cells; also called CD47 on the HL60 cell surface; CD47 on the Jurkat cell surface

Row | EC50 | Binder
7 | 26 nM | 1518-HS5 (CD16F1-L1-hHS5-L1-hA09-10-3-L3-hA09-10-4-L1-hPL16-L3-hPL16) (bispecific antibody, Multi-specific single chain antibody with the 9-residue linker G4SG3S between the anti-HSA and anti-CD47 domains) EVQLVESGGGLVQPGGSLRLSCAVSGSLFSARVMGWYRQAPGKQRELVAAITSGVRTDYADSVKGRFTISRDNAKRAVYLQMNSLKPEDTAVYYCNVNLYNTGNYWGQGTQVTVSSGGGGSGGGSEVQLLESGGGLVQPGGSLRLSCAASGRTFTTHAMGWFRQAPGKEREFVSAINWGGRTTYYADSVKGRFIISRDTGANTLYLQMNSLRAEDTAVYYCASNLDTYNVRAGTTNSWGQGTQVTVSSGGGGSGGGSEVQLVESGGGLVQPGGSLRLSCAASGGGRTFSNYALGWFRQAPGKEREFVAAISRSGGNINYADSVKGRFTISRDNFKNTVYLQMSSLRAEDTAVYYCAAHYLLLPSYISTSTNMYNYWGQGTQVTVSSAAAQVQLVESGGGLVQPGGSLRLSCAASGGGRTFSNYALGWFRQAPGKEREFVAAISRSGGNINYADSVKGRFTISRDNAKNTVYLQMSSLRAEDTAVYYCAAHYLLLPSYISTSTNMYNYWGQGTQVTVSSGGGGSGGGSEVQLVESGGGLVQPGGSLRLSCAASGGTFLTYSMSWVRQAPGKEREFVSSINWSGYMTYYADSVKGRFTISRDNSKNTLYLQMNSLRAEDTAVYYCAAARTAIAAKRSSEFDYWGQGTQVTVSSAAAEVQLVESGGGLVQPGGSLRLSCAASGGTFLTYSMSWVRQAPGKEREFVSSINWSGYMTYYADSVKGRFTISRDNSKNTLYLQMNSLRAEDTAVYYCAAARTAIAAKRSSEFDYWGQGTQVTVSS
8 | 8.4 nM | 1518-HS5-GS15 (bispecific antibody, Multi-specific single chain antibody with the 15-residue linker (G4S)3 between the anti-HSA and anti-CD47 domains) EVQLVESGGGLVQPGGSLRLSCAVSGSLFSARVMGWYRQAPGKQRELVAAITSGVRTDYADSVKGRFTISRDNAKRAVYLQMNSLKPEDTAVYYCNVNLYNTGNYWGQGTQVTVSSGGGGSGGGSEVQLLESGGGLVQPGGSLRLSCAASGRTFTTHAMGWFRQAPGKEREFVSAINWGGRTTYYADSVKGRFIISRDTGANTLYLQMNSLRAEDTAVYYCASNLDTYNVRAGTTNSWGQGTQVTVSSGGGGSGGGGSGGGGSEVQLVESGGGLVQPGGSLRLSCAASGGGRTFSNYALGWFRQAPGKEREFVAAISRSGGNINYADSVKGRFTISRDNFKNTVYLQMSSLRAEDTAVYYCAAHYLLLPSYISTSTNMYNYWGQGTQVTVSSAAAQVQLVESGGGLVQPGGSLRLSCAASGGGRTFSNYALGWFRQAPGKEREFVAAISRSGGNINYADSVKGRFTISRDNAKNTVYLQMSSLRAEDTAVYYCAAHYLLLPSYISTSTNMYNYWGQGTQVTVSSGGGGSGGGSEVQLVESGGGLVQPGGSLRLSCAASGGTFLTYSMSWVRQAPGKEREFVSSINWSGYMTYYADSVKGRFTISRDNSKNTLYLQMNSLRAEDTAVYYCAAARTAIAAKRSSEFDYWGQGTQVTVSSAAAEVQLVESGGGLVQPGGSLRLSCAASGGTFLTYSMSWVRQAPGKEREFVSSINWSGYMTYYADSVKGRFTISRDNSKNTLYLQMNSLRAEDTAVYYCAAARTAIAAKRSSEFDYWGQGTQVTVSS

molecular target: mouse serum albumin (mouse, UniProt P07724 25-608); assay: BLI (Octet), cross-species albumin binding

Row | Kd | Binder
9 | 4.57 nM | hHS10 (VHH, also called humanized HS10; not shown: C-terminal His-tag) VHH: EVQLVESGGGLVQPGGSLRLSCAASGSTDSAYRMGWFRQAPGKEREFVSAINWSDGRTYYADSVKGRFTISRDNSKNTLYLQMNSLRAEDTAVYYCAADPDSRLYYTVPQNYDYWGQGTLVTVSS

molecular target: T3, Human serum albumin (human, UniProt P02768 25-609); assay: BLI (Octet), cross-species albumin binding
T3 construct: also called HSA

Row | Kd | Binder
10 | 0.817 nM | hHS5 (VHH, also called humanized HS5; not shown: C-terminal His-tag) VHH: EVQLLESGGGLVQPGGSLRLSCAASGRTFTTHAMGWFRQAPGKEREFVSAINWGGRTTYYADSVKGRFIISRDTGANTLYLQMNSLRAEDTAVYYCASNLDTYNVRAGTTNSWGQGTQVTVSS
11 | 3.18 nM | hHS10 (VHH, also called humanized HS10; not shown: C-terminal His-tag) VHH: EVQLVESGGGLVQPGGSLRLSCAASGSTDSAYRMGWFRQAPGKEREFVSAINWSDGRTYYADSVKGRFTISRDNSKNTLYLQMNSLRAEDTAVYYCAADPDSRLYYTVPQNYDYWGQGTLVTVSS

molecular target: Monkey serum albumin (Monkey); assay: BLI (Octet), cross-species albumin binding

Row | Kd | Binder
12 | 11.6 nM | hHS5 (VHH, also called humanized HS5; not shown: C-terminal His-tag) VHH: EVQLLESGGGLVQPGGSLRLSCAASGRTFTTHAMGWFRQAPGKEREFVSAINWGGRTTYYADSVKGRFIISRDTGANTLYLQMNSLRAEDTAVYYCASNLDTYNVRAGTTNSWGQGTQVTVSS
13 | 8.08 nM | hHS10 (VHH, also called humanized HS10; not shown: C-terminal His-tag) VHH: EVQLVESGGGLVQPGGSLRLSCAASGSTDSAYRMGWFRQAPGKEREFVSAINWSDGRTYYADSVKGRFTISRDNSKNTLYLQMNSLRAEDTAVYYCAADPDSRLYYTVPQNYDYWGQGTLVTVSS

molecular target: T4, Human CD16A (human, UniProt P08637 17-208, limits assumed); assay: BLI (Octet) as in Example 1, His-tagged VHH, human CD16A
T4 construct: also called FcγRIIIa
T4 sequence (P08637 17-208 limits assumed): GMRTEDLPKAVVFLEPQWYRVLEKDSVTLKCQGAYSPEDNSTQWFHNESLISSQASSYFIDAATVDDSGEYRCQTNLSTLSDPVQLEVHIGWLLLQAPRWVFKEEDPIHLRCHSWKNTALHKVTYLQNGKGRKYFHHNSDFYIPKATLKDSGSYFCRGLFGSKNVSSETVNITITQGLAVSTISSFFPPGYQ

Row | Kd | koff | kon | Binder
14 | 3.02 nM | 6e-05 s⁻¹ | 19900 M⁻¹ s⁻¹ | CD16E11 (VHH, not shown: C-terminal His-tag) VHH: QVQLVESGGGLVQPGGSLTLSCRASGFTFSNHAMSWVRQAPGKGLEWVSEISFNGHATRYADSLKGRFTISRDNAKNTLYLQMNTLKPEDTAVYYCRKGWNATPQIGERGRGTQVTVSS
15 | 4.68 nM | 0.000109 s⁻¹ | 23300 M⁻¹ s⁻¹ | CD16F1 (VHH, not shown: C-terminal His-tag) VHH: EVQLVESGGGLVQPGGSLRLSCAVSGSLFSARVMGWYRQAPGKQRELVAAITSGVRTDYADSVKGRFTISRDNAKRAVYLQMNSLKPEDTAVYYCNVNLYNTGNYWGQGTQVTVSS

molecular target: T3, Human serum albumin; assay: BLI (Octet) as in Example 1, His-tagged VHH, HSA

Row | Kd | koff | kon | Binder
16 | 0.946 nM | 0.000765 s⁻¹ | 809000 M⁻¹ s⁻¹ | HS5 (VHH, not shown: C-terminal His-tag) VHH: EVQLVESGGGLVQAGGSLRLSCAASGRTFTTHAMGWFRQAPGKEREFVATINWGGRTTYYADSVKGRFIISRDTGANTVYLQMNSLKPEDTAVYYCASNLDTYNVRAGTTNSWGQGTQVTVSS
17 | 2.89 nM | 8.01e-05 s⁻¹ | 27700 M⁻¹ s⁻¹ | HS10 (VHH, not shown: C-terminal His-tag) VHH: EVQLVESGGGLVQPGGSLRLSCAASGSTDSAYRMGWFRQAPGKEREFVSAINWSDGRTYYADSVKGRFTISRDNSKNTLYLQMNSLRAEDTAVYYCAADPDSRLYYTVPQNYDYWGQGTLVTVSS
18 | 0.568 nM | 0.000583 s⁻¹ | 1.03e+06 M⁻¹ s⁻¹ | HS12 (VHH, not shown: C-terminal His-tag) VHH: QVQLVESGGGSVQAGGSLRLSCAASGRTFISFSMGWFRQAPGKEREFVASITNSGSGILYGDSVKGRFTISRDNAKNTMYLQMNSLKPEDTAVYYCAAGTGAGRYRYASMFDYWGQGTQVTVSS
19 | 0.498 nM | 0.000829 s⁻¹ | 1.67e+06 M⁻¹ s⁻¹ | HS6 (VHH, not shown: C-terminal His-tag) VHH: EVQLVESGGGLVQAGGSLRLSCAASGRIFHTYAVGWFRQAPGKERESVVIINWSSDHTYVAQSVKGRFTISRDRAKNTFYLQMNSLKPEDTAVYYCAVRRRLYGLRESDFDSWGQGTQVTVSS

— patent US12723105 (BEIJING STARMAB BIOMED TECHNOLOGY, dated 2026)
